Measured values as given in paper PMC3008968.

Tests used:
[1] = molecular target: Cephalosporium lectin (Cephalosporium (isolated from the corneal smears of a keratitis patient)); experiment: SEC; gel filtration on a Superdex G-75 column in PBS, calibrated with standard proteins; 57 kDa compared with the 14 kDa subunit mass by SDS-PAGE
[2] = molecular target: Cephalosporium lectin (Cephalosporium (isolated from the corneal smears of a keratitis patient))

Row | Molecule | stoichiometry N [1] | minimum concentration required to inhibit hemagglutination of trypsinized human erythrocytes by CSL (hapten inhibition, MIC) [2] [μg/50 μl]
1 | Cephalosporium lectin (natural protein) | 4 | 
2 | Mucin (porcine stomach, type III) (natural protein) |  | 0.785
3 | fetuin (fetal calf serum) (natural protein) IPLDPVAGYKEPACDDPDTEQAALAAVDYINKHLPRGYKHTLNQIDSVKVWPRRPTGEVYDIEIDTLETTCHVLDPTPLANCSVRQQTQHAVEGDCDIHVLKQDGQFSVLFTKCDSSPDSAEDVRKLCPDCPLLAPLNDSRVVHAVEVALATFNAESNGSYLQLVEISRAQFVPLPVSVSVEFAVAATDCIAKEVVDPTKCNLLAEKQYGFCKGSVIQKALGGEDVRVTCTLFQTQPVIPQPQPDGAEAEAPSAVPDAAGPTPSAAGPPVASVVVGPSVVAVPLPLHRAHYDLRHTFSGVASVESSSGEAFHVGKTPIVGQPSIPGGPVRLCPGRIRYFKI |  | 6.25
4 | Asialofetuin (natural protein, asialo form (asialofetuin)) IPLDPVAGYKEPACDDPDTEQAALAAVDYINKHLPRGYKHTLNQIDSVKVWPRRPTGEVYDIEIDTLETTCHVLDPTPLANCSVRQQTQHAVEGDCDIHVLKQDGQFSVLFTKCDSSPDSAEDVRKLCPDCPLLAPLNDSRVVHAVEVALATFNAESNGSYLQLVEISRAQFVPLPVSVSVEFAVAATDCIAKEVVDPTKCNLLAEKQYGFCKGSVIQKALGGEDVRVTCTLFQTQPVIPQPQPDGAEAEAPSAVPDAAGPTPSAAGPPVASVVVGPSVVAVPLPLHRAHYDLRHTFSGVASVESSSGEAFHVGKTPIVGQPSIPGGPVRLCPGRIRYFKI |  | 12.5
